Legend:
Conditions in all cases: both partners purified
[1] = biological target: T1, calmodulin (full-length mammalian calmodulin, R. norvegicus CALM2) (R. norvegicus, UniProt P0DP30 1-149); test: ITC; Ca2+-free: CTerm (2–25 µM) in the sample cell, CaM (30–1000 µM) as titrant; 20 mM MOPS, 150 mM NaCl, 1 mM MgCl2, 50 µM EGTA; VP-ITC, single binding site fit, one replicate
T1 construct: full-length mammalian calmodulin, R. norvegicus CALM2, 100% amino acid identity with H. sapiens CaM, in pET24b; Ca2+-free (apo, 50 µM EGTA) and Ca2+-saturated ((Ca2+)4, 1 mM CaCl2) states are the same molecule; the assays tell them apart; also called CaM; CaM WT; source: E. coli BL21-CodonPlus RIL; for ITC expressed alone and purified (two Phenyl FF columns); for crystals co-expressed and …

[2] = biological target: T1, calmodulin (full-length mammalian …); test: ITC; Ca2+-saturating: CTerm (2–25 µM) in the sample cell, CaM, CaM12 or CaM34 (30–1000 µM) as titrant; 20 mM MOPS, 150 mM NaCl, 1 mM MgCl2, 50 µM EGTA with 1 mM CaCl2; VP-ITC, single binding site fit, one replicate
[3] = biological target: T2, calmodulin (full-length mammalian, CALM2) (R. norvegicus, UniProt P0DP30 1-149); test: ITC; CaM species in the syringe, NaV CTerm in the cell; Ca2+-free: 20 mM MOPS, 150 mM NaCl, 1 mM MgCl2, 50 µM EGTA; VP-ITC; fitted to a single binding site per monomer, error of the fit; one replicate
T2 construct: Full-length mammalian calmodulin (R. norvegicus CALM2; 100% amino acid identity with H. sapiens CaM), 148 residues; apo CaM and (Ca2+)4-CaM are the same protein without and with 1 mM CaCl2; the two conditions are two assays; also called CaM; WT CaM; source: E. coli BL21-CodonPlus RIL, purified (two Phenyl FF columns)

[4] = biological target: T2, calmodulin (full-length mammalian, …); test: ITC; CaM species in the syringe, NaV CTerm in the cell; Ca2+-saturating: 20 mM MOPS, 150 mM NaCl, 1 mM MgCl2, 50 µM EGTA with 1 mM CaCl2; VP-ITC; fitted to a single binding site per monomer, error of the fit; one replicate

B1: NaV1.4 CTerm Short (residues 1599–1754), freed of CaM for ITC (domain or fragment)
chain: ENFNVATEESSEPLGEDDFEMFYETWEKFDPDATQFIAYSRLSDFVDTLQEPLRIAKPNKIKLITLDLPMVPGDKIHCLDILFALTKEVLGDSGEMDALKQTMEEKFMAANPSKVSYEPITTTLKRKHEEVCAIKIQRAYRRHLLQRSMKQASYMYLTRAAAS
notes: additional 7 residues at the C-terminus of the construct; source: E. coli BL21-CodonPlus RIL, co-expressed with CaM, purified (Glutathione Sepharose; CaM removed by a TFP and Ca2+ wash; eluted with glutathione; 70% pure)
Question: How did the Kd [1] turn out when B1 was run?
Answer: 114 nM

Question: And the Kd [2]?
Answer: 305 nM

B2: NaV1.4 CTerm Long (residues 1599-1764) (domain or fragment)
chain: ENFNVATEESSEPLGEDDFEMFYETWEKFDPDATQFIAYSRLSDFVDTLQEPLRIAKPNKIKLITLDLPMVPGDKIHCLDILFALTKEVLGDSGEMDALKQTMEEKFMAANPSKVSYEPITTTLKRKHEEVCAIKIQRAYRRHLLQRSMKQASYMYRHSHDGSGDD
notes: The text layer of the ITC plots in D1 (p5, p9); not shown: GST, N-terminal, kept
Question: How did the Ka [3] turn out when B2 was run?
Answer: 5.85e+07 M⁻¹

Question: And the Ka [4]?
Answer: 3.63e+06 M⁻¹

B3: NaV1.4 CTerm Long (residues 1599–1764), freed of CaM for ITC (domain or fragment)
chain: B2 chain
notes: H. sapiens NaV1.4 (SCN4A) C-terminal domain, a.a; the protein may have carried GST in the titrations; source: E. coli BL21-CodonPlus RIL, co-expressed with CaM, purified (Glutathione Sepharose; CaM removed by a TFP and Ca2+ wash; eluted with glutathione; 70% pure)
Question: B3 was tested. Which Kd [1] did it give?
Answer: 17 nM

Question: What about the Kd [2] of the same binder?
Answer: 275 nM
